From patent US9335325B2, “Immunodominant Mycobacterium tuberculosis peptides from cell wall proteins for early diagnosis and immunization” (priority 2008, dated 2016) come the findings set out here.

Test [1] has as its system other ECM proteins tested (fibrinogen, elastin, collagen I-IV, vitronectin). The test can be described thus: Western blot binding of rPTRP to other ECM proteins. The note with it: data not shown. The arrangement: species or system human. In general terms: In western blotting, separated proteins are transferred to a membrane and probed.
Test [2] has as its target T1, Thrombospondin (human platelet) (Homo sapiens, UniProt P07996).
T1 construct: Thrombospondin (human platelet) was from Calbiochem, EMD Biosciences Inc; purchased Calbiochem, EMD Biosciences Inc; host or cells: human platelet
The test can be described thus: Western blot binding of rPTRP to ECM protein. The note with it: ECM protein 5 μg/ml. As for the experimental part:
The binding of the purified rPTRP to various ECM proteins was determined both by western blotting and ELISA (21). Laminin-1 (human placenta); fibronectin and fibrinogen (human plasma) and elastin (human lung) were obtained from Sigma; human collagen I; collagen III and collagen IV (human placenta), collagen II (human cartilage) and vitronectin (human plasma) from Chemicon International Inc. Temecula, Calif. Thrombospondin (human platelet) was from Calbiochem, EMD Biosciences Inc. and BSA (negative control) was from Promega. Western blots containing rPTRP (0.4 μg/lane) were blocked with 3% BSA in PBS and incubated with the ECM proteins (5 μg/ml) dissolved in PBS. Negative control lanes were incubated with PBS alone. The bound ECM proteins were detected with appropriate anti-ECM antibodies (anti-laminin, anti-fibronectin, anti-thrombospondin and anti-vitronectin at 1:5000; anti-fibrinogen at 1:1000; anti-Col I, Col III, Col IV and anti-elastin at 1:500; anti-Col II at 1:100) followed by appropriate enzyme-conjugated secondary antibodies (anti-rabbit IgG-AP at 1:2000; anti-goat IgG-AP at 1:3000).

The test system of test [3] is anti-PTRP antibodies in sera from TB patients. The test can be described thus: Western blot of rPTRP probed with human sera. In kind it is binding. The note with it: for sera showing reactivity with the ~52 kDa protein: positive/tested.
Test [4] deals with fibronectin (human plasma). The test can be described thus: ELISA binding of rPTRP to ECM protein. Conditions: rPTRP 5-20 μg/ml coated. As for the experimental part:
(§1) The wells of ELISA plates were coated with various concentration of rPTRP (5-20 μg/ml in PBS) or BSA for 1 h at 37° C. followed by ON at 4° C. Subsequently, the wells were washed with PBS, blocked with 1% BSA in PBS (2 h at 37° C.), washed again with PBST and incubated with different ECM proteins (1 μg/ml; only laminin at 0.5 μg/ml) for 2 h at 37° C. After washing again, the wells were exposed to respective anti-ECM antibodies and the appropriate enzyme-conjugated secondary antibodies to detect the bound ECM proteins.

The subject of test [5] is Laminin-1 (human placenta). The test can be described thus: ELISA binding of rPTRP to ECM protein. The note with it: rPTRP 5-20 μg/ml coated, laminin 0.5 μg/ml. The procedure:
as §1
On the technique in general: In an ELISA, binding on a coated surface is turned into a signal by an enzyme label.

Test [6] addresses T1, Thrombospondin (human platelet). The test can be described thus: ELISA binding of rPTRP to ECM protein. Conditions: rPTRP 5-20 μg/ml coated. The procedure:
as §1

Test [7] relates to Laminin-1 (human placenta). The test can be described thus: Western blot binding of rPTRP to ECM protein. Conditions: ECM protein 5 μg/ml.
The subject of test [8] is fibronectin (human plasma). The test can be described thus: Western blot binding of rPTRP to ECM protein. The note with it: ECM protein 5 μg/ml.

T1 sequence (P07996 19-1170): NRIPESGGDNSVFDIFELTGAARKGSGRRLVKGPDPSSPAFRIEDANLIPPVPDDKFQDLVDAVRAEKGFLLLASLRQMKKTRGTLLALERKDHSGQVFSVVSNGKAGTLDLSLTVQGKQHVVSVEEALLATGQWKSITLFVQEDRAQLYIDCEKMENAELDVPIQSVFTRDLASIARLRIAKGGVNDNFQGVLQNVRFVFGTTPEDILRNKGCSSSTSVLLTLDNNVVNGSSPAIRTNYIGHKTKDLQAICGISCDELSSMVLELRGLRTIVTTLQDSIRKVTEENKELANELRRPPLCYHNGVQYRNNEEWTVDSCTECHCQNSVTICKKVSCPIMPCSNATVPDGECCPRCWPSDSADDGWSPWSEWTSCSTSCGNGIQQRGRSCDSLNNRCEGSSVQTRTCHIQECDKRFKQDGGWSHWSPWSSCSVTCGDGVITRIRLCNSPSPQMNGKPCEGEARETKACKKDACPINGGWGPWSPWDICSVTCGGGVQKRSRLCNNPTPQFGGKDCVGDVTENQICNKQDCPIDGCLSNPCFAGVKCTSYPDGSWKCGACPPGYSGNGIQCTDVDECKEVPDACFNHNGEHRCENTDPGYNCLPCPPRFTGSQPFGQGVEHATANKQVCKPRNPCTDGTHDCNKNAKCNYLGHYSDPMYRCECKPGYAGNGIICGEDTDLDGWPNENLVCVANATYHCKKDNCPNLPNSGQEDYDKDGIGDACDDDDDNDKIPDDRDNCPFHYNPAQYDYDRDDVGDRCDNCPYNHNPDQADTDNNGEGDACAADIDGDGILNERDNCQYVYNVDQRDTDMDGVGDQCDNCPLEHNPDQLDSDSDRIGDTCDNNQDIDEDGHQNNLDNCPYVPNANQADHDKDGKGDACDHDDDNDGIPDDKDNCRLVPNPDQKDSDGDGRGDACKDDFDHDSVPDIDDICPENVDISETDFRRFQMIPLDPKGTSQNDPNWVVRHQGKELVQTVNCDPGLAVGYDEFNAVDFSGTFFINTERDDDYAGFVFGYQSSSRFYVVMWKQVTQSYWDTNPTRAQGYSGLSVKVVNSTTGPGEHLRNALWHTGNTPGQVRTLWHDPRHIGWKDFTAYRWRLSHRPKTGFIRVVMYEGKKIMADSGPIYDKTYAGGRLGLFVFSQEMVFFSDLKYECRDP

B1: rPTRP: purified recombinant proline-threonine repetitive protein of Mtb (SEQ ID NO:2), GST tag cleaved (protein)
chain: MDVALGVAVTDRVARLALVDSAAPGTVIDQFVLDVAEHPVEVLTETVVGTDRSLAGENHRLVATRLCWPDQAKADELQHALQDSGVHDVAVISEAQAATALVGAAHAGSAVLLVGDETATLSVVGDPDAPPTMVAVAPVAGADATSTVDTLMARLGDQALAPGDVFLVGRSAEHTTVLADQLRAASTMRVQTPDDPTFALARGAAMAAGAATMAHPALVADATTSLPRAEAGQSGSEGEQLAYSQASDYELLPVDEYEEHDEYGAAADRSAPLSRRSLLIGNAVVAFAVIGFASLAVAVAVTIRPTAASKPVEGHQNAQPGKFMPLLPTQQQAPVPPPPPDDPTAGFQGGTIPAVQNVVPRPGTSPGVGGTPASPAPEAPAVPGVVPAPVPIPVPIIIPPFPGWQPGMPTIPTAPPTTPVTTSATTPPTTPPTTPVTTPPTTPPTTPVTTPPTTPPTTPVTTPPTTVAPTTVAPTTVAPTTVAPTTVAPATATPTTVAPQPTQQPTQQPTQQMPTQQQTVAPQTVAPAPQPPSGGRNGSGGGDLFGGF
modifications: GST tag cleaved; possible residual linker residues; Mycobacterium tuberculosis Strain H37Rv
Regarding B1, in test [1], the “binding to other ECM proteins” value is “not with any of the other ECM proteins tested”. For the same molecule, the binding to thrombospondin result in test [2] is “showed binding”; in test [6], “in a dose-dependent manner”. For the same molecule, the “sera showing significant reactivity with the protein” value in test [3] (6 PPD+, 6 PPD- and 6 HIV+TB- subjects) is recorded as “none”. The “sera showing reactivity with the ~52 kDa protein” value is 5/6 in test [3] (HIV+TB+ patients) and 4/6 in test [3] (HIV-TB+ patients). Besides, the values for the binding to fibronectin result in test [4] and in test [8] were “in a dose-dependent manner” and “showed binding”, respectively. In addition, the binding to laminin result in test [5] is “in a dose-dependent manner”; in test [7], “showed binding”.
